# According to the DeepSol protein solubility set:
# Test: soluble on expression in E. coli; label from the status in PepcDB or PDB records
row,Sequence,soluble on expression in E. coli
1,MKVIIDGEVRTLKAAWYEDGEVKLIDQRELPDKIKIFSAKNSDDIAYAIKNMVVRGAPAIGVTAAYGLAMASKNGEDMNKAKEKIRATRPTAYDLFKAIRYMEVNGYDMNAARRYAMEIEGRSKKIGELGNELIRNGAKILTHCNAGALAVLDWGTALSPMRIAHNEGKNIFVFVDETRPRLQGAKLTAWELAQEGIDHAIIADNAAGFYMRRKEIDLVIVGADRIASNGDFANKIGTYEKAVLAKVNGIPFYVAAPGSTFDFSIRSGDEIPIEERDENEVLEINGIRIGPNESHSKNPAFDVTPNEYVTGFITEYGIFKPNELNKLKDLMDKDLFMNIK,not soluble
2,MKVKNNAQLLMPREKMLKFGISALTDVELLALFLRTGTRGKDVLTLAKEMLENFGSLYGLLTSEYEQFSGVHGIGVAKFAQLKGIAELARRYYNVRMREESPLLSPEMTREFLQSQLTGEEREIFMVIFLDSQHRVITHSRLFSGTLNHVEVHPREIIREAIKINASALILAHNHPSGCAEPSKADKLITERIIKSCQFMDLRVLDHIVIGRGEYVSFAERGWI,not soluble
3,MKVKTQFVCNQCAAIFKQWAGQCTQCGAWNSIVEEGIMPENKTLRSGQWANQRSVITAVEDVVMDKIVRMDCGISELNRVLGGGLVYGSVVLIGGDPGIGKSTLLLQTLANLSMQETVLYVTGEESLQQVAMRAQRLGLPLAGLRLLAETQVESIIAQAQKEKPRIIVVDSVQTIFTEAISSAPGGVSQVRESAAQLVRYAKMTNTAIFLVGHVTKEGTLAGPRVLEHMVDSVLYFEGQNDSRFRVIRAIKNRFGAVNELGVFAMTDKGLKEVANPSAIFLSRQPEPTPGSAVMVTWEGSRPMLVEVQALVDEAHGQQAKRVTAGLEHNRLAILLAVLHRHGGIATYDQDVFINVVGGVKVTETASDLALLAAVISSLRNRIFDSETIIFGEVGLAGEIRPVQSGQERIKEAIKHGFKRAIVPFANAPKQQIDSMTVEPVKHLRDVLEKM,not soluble
4,MKVRAQVPTVKNATNFNMVADSKTAVGSTLENLKAAIAGETGAHAKYTAFAKAAREQGYEQIARLFEATAAAELIHIGLEYALVAEMEPGYEKPTVAAPSAYSCDLNLISGANGEIYETSDMYPAFIRKAQEEGNSKAVHVFTRAKLAESVHAERYLAAYNDIDAPDDDKFHLCPICGYIHKGEDFEKCPICFRPKDTFTAY,soluble
5,MKVTPINDYKDIHQDKETVLVLGYFDALHRGHKVLFDKARQIADEKQLEVAVFTFNESPQLTFQRYTDDLLLHITAPQRRCDLFKAYGTDQLYLTDFNSDFARTSSDDFITRYINRLKAQEIVVGFDYKFGHHRTDTDYLDRNFSGTVHVIEEQQSGGEKISSTRVRQLIREGNVKEANNLLGHEFSTRGIVVHGDARGRTIGFPTANLAPIDRTILPADGVYVADVVIDGKRYRSMTSLGKNVTFGGTELRLEANIFDFEGDIYGKTIEVFWLDYIRDMIKFNNIDELCDQLKADKKIAEKL,not soluble
6,MKVTVIGCYGGFPAANEATSGYLFQSGDYSLLVDCGSAVLSKLFGYVPAEKLDAVVLSHYHHDHIADIGPLQFAKQVGSFLGKGEHTLPIYGHDADIEQFQKLTYKTHTKGIAYQPDQPLTAGPFTITFLKTIHPVTCYAMRITDGSHTVVYTADSSYQDSFIPFSKDADLLISECNFYADQDGTSAGHMNSLEAGRIAKEAGAGELLLTHLPHFGVHDNLRKEAKTVFNGEVNIAKSGFVWEG,soluble
7,MKVVAAYLLAKLSGNENPSVADLKKIVESVGAEIDQEKIDLFFSLIKDRDVTELIAVGREKMAALSSGGGAVAVASGGGGGAAPAAEPASVESKKKEEEKEESEDDGGMMSLFD,soluble
8,MKWEMGLQEEYIELIKAGKKKIEGRLYDEKRRQIKPGDIIIFEGGKLKVKVKGIRVYSSFKEMLEKEGIENVLPGVKSIEEGVKVYRQFYDEEREKKYGVVAIEIEPIE,soluble
9,MKWPWWPVCVPLSKRLTLPLPSTANPVVQPSRLALACANRLFEAADNRERFLQALMTPPAYPATVLWCGEPAAALPFAALPPLPWQPPWVSRFVAGSPTGQHPLHAAGAYYCLDSSSVFAAVPLLTLPQEPSLVIDVCAAPGGKSLFAWRSLHPRYLICNETIGKRVGKLIGNLKRCRVHPVGVTSWDSEVLAAEFQGTADVVIVDAPCSGQSLLAKGQKAEGCFHPLTIRHNQRRQKRILAAATTLVRPGGWLLYSTCTFSQDENEDVAAWLMAKFPHLLPQPVPALAAYQSHLAAFPCYRLWPHQGEGAGAFTILWQHQGLEHHHHHH,soluble
